Target: T1, hnRNP H1-His6 (UniProt P31943 1-449)
T1 sequence: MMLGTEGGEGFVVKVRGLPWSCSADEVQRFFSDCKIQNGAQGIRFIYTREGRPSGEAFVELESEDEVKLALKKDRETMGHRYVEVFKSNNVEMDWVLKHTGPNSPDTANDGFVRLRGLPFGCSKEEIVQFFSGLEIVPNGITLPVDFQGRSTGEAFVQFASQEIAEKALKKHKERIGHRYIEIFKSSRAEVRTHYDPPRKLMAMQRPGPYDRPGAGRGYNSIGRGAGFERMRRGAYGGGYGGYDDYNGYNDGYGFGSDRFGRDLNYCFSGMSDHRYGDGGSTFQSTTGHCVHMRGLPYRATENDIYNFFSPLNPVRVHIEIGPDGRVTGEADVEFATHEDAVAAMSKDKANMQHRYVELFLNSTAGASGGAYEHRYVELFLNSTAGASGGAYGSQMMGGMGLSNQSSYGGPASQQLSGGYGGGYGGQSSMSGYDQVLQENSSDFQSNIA
Assay: EMSA

B1: r(G4C2)8 (32P) (structured_RNA)
RNA: GGGGCCGGGGCCGGGGCCGGGGCCGGGGCCGGGGCCGGGGCCGGGGCC
- Kd: 65 ± 26 nM
